Experimental data: patent US12662540B2, “Compositions and methods for inhibition of MICA/B shedding” (DANA-FARBER CANCER INSTITUTE, INC., priority 2017, dated 2026)

How the values were obtained:
[1] = system: MICA α3 domain; assay: ELISA for antibody binding to immobilized MICA α3 domain; design: species or system human; conditions: fluorescence-based ELISA, immobilized antigen
Protocol: ELISA experiments were performed in DELFIA® 96-well plates (Perkin Elmer) or in Nunc Maxisorp 96-wells plates (Thermo Scientific). Wells were coated with antigens by overnight incubation at 4° C. using 100 ng of protein in 100 μl of carbonate buffer, […]. Plates were subsequently washed with 1× Tris-buffered saline-Tween buffer and incubated for 2 hours with 2% bovine serum albumin (BSA) in phosphate buffered saline (PBS), pH 7.4, or DELFIA® Assay Buffer (Perkin Elmer) at room temperature. MICA antibodies were used at 1 μg/ml, unless indicated otherwise. Isotype controls were MPC-11 (mIgG2b) and MOPC-21 (mIgG1), but only MPC-11 is shown in the figures, given that no differences were observed between these controls. Human isotype control was a recombinant human IgG1 antibody (BE0096, BioXcell). Biotinylated goat anti-mouse IgG (Poly4053—Biolegend) was used as the secondary antibody which was followed by streptavidin-Europium (Perkin Elmer) and DELFIA® Enhancement Solution (Perkin Elmer). Europium fluorescence was quantified using an EnVision® microplate reader (Perkin Elmer). The HRP-conjugated secondary antibodies were Novex® Goat anti-human IgG (A24470, Life Technologies), Goat anti-mouse IgG1 (1070-05), IgG2a (1080-08), IgG2b (1090-05), and IgG3 (1100-05), and Goat anti-mouse IgG (31430, Thermo Scientific). […] Absorbance was read at 450 nm.

[2] = system: B16F10-MICA lung metastases; assay: Flow cytometry-based analysis of immune and tumor cells in lung tissue; type: in vivo, C57BL/6 mice
Protocol: Wild-type mice were injected with 1×10^6 B16F10 cells that were previously transduced with ZsGreen-based lentiviral vectors (full-length MICA, secreted MICA or empty vector). In some experiments, mice received a lower dose of B16F10-MICA tumor cells (7×10^5). On days 1, 2, 7 and 10 following B16F10-MICA cell injection, mice received 200 μg of 7C6-mIgG2a or isotype control (C1184) antibodies by intraperitoneal injection. Prior to euthanasia, mice received an intravenous injection of 50 μl of APC-conjugated anti-CD45.2 (clone104, Biolegend) to label intravascular immune cells. Approximately 5 minutes later, mice were euthanized by CO2 inhalation and cell suspensions were generated from lung tissue. Lungs were cut into small pieces which were re-suspended in 10 ml of RPMI-1640 supplemented with 1 mg/ml collagenase type IV, 0.1 mg/ml hyaluronidase, and 20 U/ml DNase type IV. Samples were dissociated in a gentleMACS instrument (Miltenyi) using the program 37C_m_LDK 1 which digests the tissue by incubation with 37° C. followed by mechanical dissociation. Cells were then washed with PBS, Fc receptors were blocked with Mouse True Stain FcX (Biolegend), and cells were stained with PE-Cy7 or v450-conjugated anti-CD45.2 (104), PE or BV785-NK1.1 (PK136), PerCP-Cy5.5 or Alexa^700-NKp46 (29A1.4), APC or APC-Cy7-CD3c (145.2C11), APC or BV511-TCRβ, PE-Cy5 or Alexa^488-CD69 (H1.2F3), BV421-NKG2D (CX5), BV510-Ly49C (5E6), BV570-CD62L (MEL-14), BV605-CD49a (Ha31/8), Alexa^488-EOMES (Dan11mag), PE-Granzyme A (GzA-3G8.5), PE or PERCP-Cy5.5-CD16/CD32 (93), PE-Cy7-Granzyme B (NGZB), BV510-DNAM-1 (10E5), Alexa^488-KLRG1 (2F1), PE-CXCR6 (SA051D1), PERCP-Cy5.5 or PE-Cy7-CD127 (A7R34), BV510-CXCR3 (CXCR3-173), Zombie NIR, Zombie Yellow or Zombie UV (all from Biolegend, BD Pharmigen or eBiosciences). For transcription factor staining, cells were fixed and permeabilized by a Transcription Factor Buffer kit (BDB562574). For Fc receptor staining, small aliquots of cells from the lung suspensions were separated and stained with PE or PerCP-Cy5.5-CD16/32 antibody (the incubation with Mouse True Stain FcX was skipped in that aliquot of cells). Tumor cells were stained with APC-conjugated anti-H2-Kb (AF6-88.5, Biolegend) and BV650-activated Caspase-3 (C92-605, BD Pharmingen) following permeabilization. Even though the CD45.2 antibody given intravenously and the anti-H2-Kb antibody were conjugated to the same fluorophore (APC), B16F10 cells could be identified based on their larger size, ZsGreen expression as well as the absence of CD45.2 expression. Samples were acquired using a LSR Fortessa, CytoFLEX or a Sony Spectral Analyzer and analyzed by FlowJo V10 software.

[3] = target: NKG2D binding to MICA (Homo sapiens, UniProt Q29983, C59Y/G229S/K148E/K196E/M152V/Q274R/S238T/T236I/T47A/W233R); assay: Bead assay for NKG2D receptor binding to MICA; conditions: MICA (allele 008) beads, human NKG2D-Fc dimer 10 μg/ml
NKG2D binding to MICA, sequence (Q29983 24-307 T47A/C59Y/K148E/M152V/K196E/G229S/W233R/T236I/S238T/Q274R): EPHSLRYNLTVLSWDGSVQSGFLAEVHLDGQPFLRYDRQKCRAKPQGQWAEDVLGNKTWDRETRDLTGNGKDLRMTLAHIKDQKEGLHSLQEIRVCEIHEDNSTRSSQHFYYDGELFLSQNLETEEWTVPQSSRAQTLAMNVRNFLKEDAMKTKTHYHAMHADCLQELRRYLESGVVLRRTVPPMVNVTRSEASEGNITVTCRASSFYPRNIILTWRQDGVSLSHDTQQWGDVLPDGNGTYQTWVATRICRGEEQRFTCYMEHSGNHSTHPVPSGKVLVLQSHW
Protocol: Streptavidin-conjugated C4 beads (BD Pharmingen) were incubated for 2 hours with MICA biotinylated at a C-terminal BirA site (200 ng of MICA per 10,000 beads). Beads were then washed with PBS containing 1% FBS. For the NKG2D receptor binding assay, chimeric human NKG2D-Fc dimer (1299-NK-050, R&D Systems) was conjugated with Alexa^488 (A10468, Molecular Probes) and used at 10 μg/ml. Binding of murine NKG2D to human MICA was measured using NKG2D-Fc dimers (10 μg/ml) followed by an Alexa^488-conjugated anti-human IgG (Molecular Probes) that bound to the Fc region of the NKG2D-Fc dimer. MICA antibodies were also used as competitors for NKG2D dimer binding at concentrations of 10, 30 and 100 μg/ml. In these assays, NKG2D dimer and MICA antibodies were co-incubated with biotinylated MICA*008-conjugated beads.

B1: 7C6: monoclonal antibody from mice immunized with recombinant MICA α3 domain; parental mIgG2b; VH SEQ ID NO: 7, VL SEQ ID NO: 8 (antibody)
VH: QIQLVQSGPELKKPGETVKVSCKASGYMFTNYAMNWVKQAPEKGLKWMGWINTHTGDPTYADDFKGRIAFSLETSASTAYLQINNLKNEDTATYFCVRTYGNYAMDYWGQGTSVTVSSAKTTAPSVYPLAPVCGDTTGSSVTLGCLVKGYFPEPVTLTWNSGSLSSGVHTFPAVLQSDLYTLSSSVTVTSS
VL: DIQMTQTTSSLSASLGDRVTISCSASQDISNYLNWYQQKPDGTVKLLIYDTSILHLGVPSRFSGSGSGTDYSLTISNLEPEDIATYYCQQYSKFPRTFGGGTTLEIK
modifications: mAb 7C6 heavy chain amino acid sequence; mAb 7C6 light chain amino acid sequence
[1]
  binding to MICA α3 domain: bound to the MICA α3 domain
[2]; lung metastases
  H2-Kb (MHC class I) expression by tumor cells: MHC class I upregulation
  apoptosis of tumor cells (active caspase-3): massive tumor cell apoptosis
[2]; mouse, in vivo
  B16F10-MICA tumor cells within lung tissue (percentage, absolute numbers): substantial reduction of tumor cell load within lung tissue
[2]; versus isotype control
  NKG2D levels on lung-infiltrating NK cells: restored NKG2D levels by lung NK cells
[3]
  inhibition of NKG2D receptor binding to MICA: do not inhibit NKG2D receptor binding
